Results from publication PMC10154249 (2023).

Molecular target: His-UPCP (HIV | human)
Assay: MST

B1: Flag-PTBP1 (natural protein)
chain: not shown
B1 showed a Kd of 4.63 µM.
